Legend:
[1] = test system: C[C@@H](O)[C@H]1C(=O)N2C(C(=O)O)=C(SCCN=CN)C[C@H]12; experiment: purified protein; settings: 50 mM HEPES, pH 7.5, 150 mM NaCl, 10 μM ZnCl2, 37 °C
[2] = test system: CC(=O)OCC1=C(C(=O)O)N2C(=O)[C@@H](NC(=O)Cc3cccs3)[C@H]2SC1; experiment: purified protein; settings: 50 mM HEPES, pH 7.5, 150 mM NaCl, 10 μM ZnCl2, 37 °C
[3] = test system: C[C@@H](O)[C@H]1C(=O)N2C(C(=O)O)=C(S[C@@H]3CN[C@H](C(=O)N(C)C)C3)[C@H](C)[C@H]12; experiment: purified protein; settings: 50 mM HEPES, pH 7.5, 150 mM NaCl, 10 μM ZnCl2, 37 °C
[4] = biological target: SPS-1 (Sediminispirochaeta smaragdinae, UniProt E1R245); settings: read-out: SPS-1 / Km; 50 mM HEPES, pH 7.5, 150 mM NaCl, 10 μM ZnCl2, 37 °C
SPS-1, sequence (E1R245 32-276 limits assumed): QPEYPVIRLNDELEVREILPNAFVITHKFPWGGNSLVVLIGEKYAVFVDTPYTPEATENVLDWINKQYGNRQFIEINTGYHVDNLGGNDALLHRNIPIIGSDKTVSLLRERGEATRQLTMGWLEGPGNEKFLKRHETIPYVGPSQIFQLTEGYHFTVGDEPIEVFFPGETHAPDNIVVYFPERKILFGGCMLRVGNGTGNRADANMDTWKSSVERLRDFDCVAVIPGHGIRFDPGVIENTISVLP

SPS-1 (Sediminispirochaeta smaragdinae DSM 11293)
Km [1]: 290 ± 50 µM
kcat [1]: 470 ± 60 s⁻¹
kcat/Km [1]: 1.63e+06 M⁻¹ s⁻¹
Km [2]: 110 ± 20 µM
kcat [2]: 3.1 ± 0.1 s⁻¹
kcat/Km [2]: 27000 M⁻¹ s⁻¹
Km [3]: 170 ± 30 µM
kcat [3]: 520 ± 50 s⁻¹
kcat/Km [3]: 3e+06 M⁻¹ s⁻¹

chromacef
Km [4]: 120 ± 9 µM
